Assay results: PMC11117807, “Comparative Study of Field-Effect Transistors Based on Graphene Oxide and CVD Graphene in Highly Sensitive NT-proBNP Aptasensors”

Legend:
[1] = molecular target: proBNP (UniProt P16860 27-134); experiment: aptamer-functionalised CVD graphene FET (GFET); after long-term storage; unexpected concentration-dependent response; 0.01x PBS with Tween (1x PBS: 2.7 mM KCl, 137 mM NaCl, 10 mM phosphate, pH 7.4); LOD in artificial saliva; surface blocked with ethanolamine and BSA; temperature not stated; conditions: protein: commercial
proBNP, sequence (P16860 27-134): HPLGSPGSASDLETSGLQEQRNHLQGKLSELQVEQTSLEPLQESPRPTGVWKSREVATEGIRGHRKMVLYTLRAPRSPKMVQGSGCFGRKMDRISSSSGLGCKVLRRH

[2] = molecular target: NT-proBNP (UniProt P16860 27-102); experiment: aptamer-functionalised rGO-FET; 0.01x PBS with Tween; response 10 fg/mL to 100 pg/mL; LOD 100 fg/mL in artificial saliva; 0.01x PBS with Tween (1x PBS: 2.7 mM KCl, 137 mM NaCl, 10 mM phosphate, pH 7.4); LOD in artificial saliva; surface blocked with ethanolamine and BSA; temperature not stated; conditions: protein: commercial
NT-proBNP, sequence (P16860 27-102): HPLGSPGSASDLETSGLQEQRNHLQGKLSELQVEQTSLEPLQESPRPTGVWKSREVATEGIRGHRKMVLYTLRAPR

B1: N20a aptamer (ssDNA)
DNA: GGCAGGAAGACAAACAGGTCGTAGTGGAAACTGTCCACCGTAGACCGGTTATCTAGTGGTCTGTGGTGCTGT
modifications: 5'-NH2
- binding result [1]: binds
- binding result [2]: binds
